We go through four molecules from US11214614B2, “LTBP complex-specific inhibitors of TGFβ and uses thereof” (Scholar Rock, Inc., priority 2019, dated 2022).

Test [1] concerns the target T1, huGARP proTGFβ1 (Homo sapiens, UniProt P01137). Description: Octet (BLI) binding, IgG captured on AHC tips, antigen at 100 nM. The following applies: N.B. = non-binder under conditions of this assay; for ForteBio IgG KD Hu GARP-proTGFβ1 (M) Avid: Table 9, cycle 3, IgG1-agly, 1:1 fit; for ForteBio IgG KD Hu GARP-proTGFβ1 in solution (M) Avid: Table 10, same assay conditions as Table 9. How it is done: (§1) Suitable methods for in vitro binding assays to determine the parameters of binding kinetics include Bio-layer Interferometry (BLI)-based assays such as Octet, and surface plasmon resonance (SPR)-based assays, such as Biacore systems (see, for example: biophysics.bioc.cam.ac.uk/wp-content/uploads/2011/02/Biacore_assay_handbook.pdf).
(§2) The affinity of SR-AB10, SR-AB2 and SR-AB13 was measured by Octet assay. The protocol used to measure the affinity of the antibodies to the complexes provided herein is summarized below.
(§3) • 96 well black polypropylene plates • AHC Octet tips (anti-human IgG Fc capture tips) (FortdBio) • 10× kinetics buffer (FortdBio) (diluted to 1× in PBS) • reiner Bio-One 96-Well Half Area Microplates (VWR cat #82050-044) Procedure:
(§4) Notes: The volume within each well during an Octet experiment is 100 uL.
(§5) A shake speed of 1000 rpm is used for all assay steps.
(§6) Pre-Wet Tips: • Biosensors must be pre-wet in 1× kinetics buffer (lx KB) for at least 10 minutes before starting an experiment. This can be done inside the Octet or on the bench.
(§7) Loading: • Tips are baselined in 1× KB for 1 minute before loading. • AHC tips are loaded with antibody at a concentration of 1 μg/mL (˜7 nM) for 3 minutes. A limit is set so that loading will stop when any one sensor reaches a response of 1 nanometer. • Tips are baselined in buffer for 1 minute after loading. The antibody should not dissociate from the tips during this time.
(§8) Antigen Association: • TGFβ1 in complex with various presentation molecules was associated to the immobilized antibodies at a single concentration of 100 nM in 1× KB.
(§9) Antibody Dissociation: • Dissociation in 1×KB was performed for 3 minutes.
(§10) Data Analysis using ForteBio Data analysis software 8.2: • Processing: align Y axis to last 5 seconds of baseline, perform inter-step correction with align to dissociation, and perform Savitzky-Golay filtering. • Analysis: 1:1 fitting model is utilized. Fitting is local and full. […] Results:
(§11) LTBP complex-specific antibodies from the first round of affinity maturation/optimization (SR-AB14, SR-AB16, SR-AB17, SR-AB18, SR-AB19) were selected for a second round of affinity maturation/optimization (i.e., CDR-H3 mutagenesis as described herein) and particular progeny antibodies (SR-AB20, SR-AB21, SR-AB22, SR-AB23, SR-AB24, SR-AB25, SR-AB26, SR-AB27, SR-AB28, and SR-AB29) were assessed for their ability to bind various proTGFβl constructs. Binding affinities of the optimized antibodies were measured by Octet against human LTBP1-proTGFβI, human LTBP3-proTGFb1, mouse LTBP1-proTGFβ1, mouse LTBP3-proTGFb1, and GARP-proTGFβl complexes, essentially as described in Example 6. In brief, test antibodies were immobilized to the surface of anti-human Fc capture biosensors (AHC) (ForteBio®) and binding was then tested against the various TGFβ1 complexes at a single concentration of 100 nM to assess binding affinities. The antigens were allowed to associate for 3 minutes followed by a 5-minute dissociation. Kinetics buffer (ForteBio®) was used throughout the experiment, and KD was determined using a 1:1 fitting model for each antibody antigen pair.
(§12) Binding affinities of the optimized antibodies were measured by Octet against human LTBP1-proTGFβ1, human LTBP3-proTGFβ1, mouse LTBP1-proTGFβ1, mouse LTBP3-proTGFβ1, and GARP-proTGFβ1 complexes, essentially as described in Example 6. In brief, test antibodies were immobilized to the surface of anti-human Fc capture biosensors (AHC) (ForteBio®) and binding was then tested against the various TGFβ1 complexes at a single concentration of 100 nM to assess binding affinities. The antigens were allowed to associate for 3 minutes followed by a 5-minute dissociation. Kinetics buffer (ForteBio®) was used throughout the experiment, and KD was determined using a 1:1 fitting model for each antibody antigen pair. […]
On the technique in general: BLI is a label-free optical method that tracks binding on a fibre tip over time.

Test [2] concerns the target T2, huLTBP1 proTGFβ1 (Homo sapiens, UniProt P01137+Q14766). The description is as above. The note with it: Table 9, cycle 3, IgG1-agly; for Hu LTBP1-proTGFβ1 Kon: 1:1 fit; for Hu LTBP1-proTGFβ1 Koff: 5-minute dissociation. The method, then:
as §1, §2, §3, §4, §5, §6, §7, §8, §9, §10, §11, §12

Test [3] addresses T3, huLTBP3 proTGFβ1 (Homo sapiens, UniProt P01137+Q9NS15). Described as above. The note with it: Table 9, cycle 3, IgG1-agly; for Hu LTBP3-proTGFβ1 Kon: 1:1 fit; for Hu LTBP3-proTGFβ1 Koff: 5-minute dissociation. How it is done:
as §1, §2, §3, §4, §5, §6, §7, §8, §9, §10, §11
Binding affinities of the optimized antibodies were measured by Octet against human LTBP1-proTGFβ1, human LTBP3-proTGFβ1, mouse LTBP1-proTGFβ1, mouse LTBP3-proTGFβ1, and GARP-proTGFβ1 complexes, essentially as described in Example 6. In brief, test antibodies were immobilized to the surface of anti-human Fc capture biosensors (AHC) (ForteBio®) and binding was then tested against the various TGFβ1 complexes at a single concentration of 100 nM to assess binding affinities. The antigens were allowed to associate for 3 minutes followed by a 5-minute dissociation. Kinetics buffer (ForteBio®) was used throughout the experiment, and KD was determined using a 1:1 fitting model for each antibody antigen pair.

The target of test [4] is T2, huLTBP1 proTGFβ1. Put plainly: SPR (Biacore 8K) monovalent binding kinetics of Fabs, biotinylated antigen captured. Details: biotin (complex biotinylated). How it is done: (§13) A Biacore 8K system was employed to determine the monovalent binding affinity and the kinetic parameters for antigen binding of test antibodies. Association and dissociation kinetics of Fab fragments SR-AB42-HuFab, SR-AB63-HuFab and SR-AB43-HuFab to antigen complexes were measured, and resulting ka, kd and KD are provided below. Briefly, the binding kinetics were evaluated by surface plasmon resonance using Biacore 8K (GE Healthcare). Biotinylated capture antigens were immobilized to the chip (10 nM, ˜200 RU loading). A Biotin CAPture sensor chip was used to capture the biotinylated antigens. Fabs at 10, 5, 2.5, 1.25, and 0.6 nM concentrations were injected over the captured antigens. 0 nM was used as a reference. Affinities of LTBP antibodies to GARP and LRRC33 were confirmed using higher concentration of Fabs (100, 50, 25, 12.5, 6.25 nM). 0 nM was used as a reference. Multi-cycle kinetics was employed where each analyte concentration was injected in a separate cycle and the sensor chip surface was regenerated after each cycle. All the assays were carried out in freshly prepared 1×HBS-EP+buffer (10 mM HEPES, 150 mM NaCl, 3 mM EDTA, 0.05% Tween20, pH 7.4). Data were fit globally to a 1:1 binding model to obtain the kinetic parameters. The sensorgram for 0 nM analyte concentration was used as reference.
(§14) • 96 well plates—Greinerbio-one REF 650101 • Microplate Foils—GE Healthcare—CAT #28-9758-16 • Biotin CAPture Kit GE Healthcare product number 28920233 • Biacore running buffer—supplied as a 20× solution, diluted in Milli-Q water, TEKnova CAT #H8022 Method:
(§15) These experiments were performed using the Biacore 8K using the method “multi-cycle kinetics/affinity using Biotin CAPture kit.”
(§16) Data collection rate was set to 10 Hz and the Biotin CAPture step was performed for 300 seconds with a flow rate of 2 μL/minute. The Biotin CAPture reagent was used after a 1:5 dilution in 1× Biacore running buffer. Biotinylated ligands (the various complexes of TGFβ1) were utilized at a concentration of 10 nM and were immobilized to the sensor chip for 180 seconds with a flow rate of 10 μL/minute. The analytes, which are each of the Fabs, were tested at 10, 5, 2.5, 1.25, and 0.625 nM with a 0 nM control included. Analyte contact time was 120 seconds and the dissociation time was 900 seconds. The regeneration cycle utilized was 120 seconds with a flow rate of 10 μL/minute.
(§17) The evaluation method used was “multi-cycle affinity using capture” and a 1:1 binding model was used. […] Global fits were utilized for every KD determination.
(In general: SPR reads the build-up and loss of mass on a sensor chip optically.)

For test [5], the target named is T1, huGARP proTGFβ1. Described as above. Details: biotin (complex biotinylated). The note with it: Fab, huGARP proTGFb1. The method, then: as §13, §14, §15, §16, §17
For test [6], the target named is T3, huLTBP3 proTGFβ1. The description is as above. Also noted: biotin (complex biotinylated). The note with it: Fab, huLTBP3 proTGFb1. How it is done: as §13, §14, §15, §16, §17
The target in the next test is huLRRC33 proTGFβ1 (Homo sapiens, UniProt P01137). Described as above. The following applies: Fab, huLRRC33 proTGFb1. Details: biotin (complex biotinylated); modified human kappa light chain signal peptide (N); Histidine tag (C). The method, then: as §13, §14, §15, §16, §17
Sequence of huLRRC33 proTGFβ1 (P01137 30-390): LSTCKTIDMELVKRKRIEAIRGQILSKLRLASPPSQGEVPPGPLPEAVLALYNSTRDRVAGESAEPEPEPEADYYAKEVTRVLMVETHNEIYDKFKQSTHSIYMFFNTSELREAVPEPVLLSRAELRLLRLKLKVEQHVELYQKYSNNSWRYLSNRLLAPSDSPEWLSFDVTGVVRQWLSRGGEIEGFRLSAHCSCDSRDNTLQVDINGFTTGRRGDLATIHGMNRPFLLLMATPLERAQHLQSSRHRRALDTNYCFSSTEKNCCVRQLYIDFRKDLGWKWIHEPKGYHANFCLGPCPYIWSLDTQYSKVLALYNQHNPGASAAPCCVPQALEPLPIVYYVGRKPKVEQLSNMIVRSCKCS
Sequence of huLRRC33 proTGFβ1 (Q86YC3 with tags, fused parts or gaps partner limits assumed): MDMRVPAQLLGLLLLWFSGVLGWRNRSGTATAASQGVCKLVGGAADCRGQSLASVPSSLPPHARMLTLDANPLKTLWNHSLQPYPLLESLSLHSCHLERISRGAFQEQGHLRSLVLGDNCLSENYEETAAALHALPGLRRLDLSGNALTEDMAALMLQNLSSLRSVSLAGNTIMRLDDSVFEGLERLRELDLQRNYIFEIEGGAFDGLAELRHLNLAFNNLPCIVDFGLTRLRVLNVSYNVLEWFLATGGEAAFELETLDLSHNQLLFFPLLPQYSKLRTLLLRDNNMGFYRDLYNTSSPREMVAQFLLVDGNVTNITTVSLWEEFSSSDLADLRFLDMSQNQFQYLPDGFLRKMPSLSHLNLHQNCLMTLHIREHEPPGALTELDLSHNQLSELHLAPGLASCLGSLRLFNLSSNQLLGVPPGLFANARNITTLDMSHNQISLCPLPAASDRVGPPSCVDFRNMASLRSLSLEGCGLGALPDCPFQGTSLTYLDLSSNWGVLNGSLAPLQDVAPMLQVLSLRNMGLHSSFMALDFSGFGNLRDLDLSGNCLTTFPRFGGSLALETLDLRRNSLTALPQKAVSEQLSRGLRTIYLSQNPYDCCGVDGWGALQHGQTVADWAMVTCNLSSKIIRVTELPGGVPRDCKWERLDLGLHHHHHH
Setting [7] is: Fab, huLTBP1 proTGFβ1, SR-AB42-HuFab average of five, SR-AB63-HuFab average of four replicate experiments.

T2 sequence (P01137 30-390): as the sequence (P01137 30-390) above
T2 sequence (Q14766 347-1721 limits assumed): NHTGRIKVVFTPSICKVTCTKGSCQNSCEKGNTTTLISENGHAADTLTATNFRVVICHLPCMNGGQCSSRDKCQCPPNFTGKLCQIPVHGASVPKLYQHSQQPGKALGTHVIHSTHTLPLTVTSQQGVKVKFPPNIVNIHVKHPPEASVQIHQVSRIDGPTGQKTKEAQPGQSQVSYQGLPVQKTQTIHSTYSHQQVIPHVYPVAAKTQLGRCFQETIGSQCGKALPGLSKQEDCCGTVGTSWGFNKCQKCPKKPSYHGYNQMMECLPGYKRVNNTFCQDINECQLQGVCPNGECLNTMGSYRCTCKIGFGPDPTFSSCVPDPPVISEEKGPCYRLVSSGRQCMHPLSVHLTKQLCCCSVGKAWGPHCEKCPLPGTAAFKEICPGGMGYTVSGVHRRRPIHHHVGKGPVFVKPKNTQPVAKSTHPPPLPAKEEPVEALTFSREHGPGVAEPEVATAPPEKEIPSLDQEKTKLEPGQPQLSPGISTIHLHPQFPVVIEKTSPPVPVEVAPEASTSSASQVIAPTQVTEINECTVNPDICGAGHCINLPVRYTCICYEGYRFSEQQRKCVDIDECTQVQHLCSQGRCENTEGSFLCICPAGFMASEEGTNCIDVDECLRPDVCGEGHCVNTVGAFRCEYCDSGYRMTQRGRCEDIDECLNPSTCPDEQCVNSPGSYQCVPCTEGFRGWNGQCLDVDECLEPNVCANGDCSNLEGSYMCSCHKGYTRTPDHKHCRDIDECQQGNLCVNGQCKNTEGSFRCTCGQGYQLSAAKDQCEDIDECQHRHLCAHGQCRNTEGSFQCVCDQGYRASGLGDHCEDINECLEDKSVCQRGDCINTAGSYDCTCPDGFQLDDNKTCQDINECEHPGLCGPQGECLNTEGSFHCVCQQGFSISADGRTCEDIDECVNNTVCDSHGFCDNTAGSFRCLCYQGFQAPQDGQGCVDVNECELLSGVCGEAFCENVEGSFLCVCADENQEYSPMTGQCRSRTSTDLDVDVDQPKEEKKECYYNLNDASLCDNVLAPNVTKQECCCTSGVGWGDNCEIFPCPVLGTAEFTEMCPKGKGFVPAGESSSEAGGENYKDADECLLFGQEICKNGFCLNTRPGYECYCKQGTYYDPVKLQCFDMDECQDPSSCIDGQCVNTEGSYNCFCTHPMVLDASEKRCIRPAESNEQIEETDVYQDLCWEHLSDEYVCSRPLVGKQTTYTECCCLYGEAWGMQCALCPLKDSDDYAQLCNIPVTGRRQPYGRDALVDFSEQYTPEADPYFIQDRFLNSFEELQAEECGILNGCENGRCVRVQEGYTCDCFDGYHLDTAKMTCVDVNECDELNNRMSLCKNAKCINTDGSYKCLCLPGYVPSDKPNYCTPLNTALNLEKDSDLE
T1 sequence (P01137 30-390): as the sequence (P01137 30-390) above
T1 sequence (Q14392 18-627 partner limits assumed): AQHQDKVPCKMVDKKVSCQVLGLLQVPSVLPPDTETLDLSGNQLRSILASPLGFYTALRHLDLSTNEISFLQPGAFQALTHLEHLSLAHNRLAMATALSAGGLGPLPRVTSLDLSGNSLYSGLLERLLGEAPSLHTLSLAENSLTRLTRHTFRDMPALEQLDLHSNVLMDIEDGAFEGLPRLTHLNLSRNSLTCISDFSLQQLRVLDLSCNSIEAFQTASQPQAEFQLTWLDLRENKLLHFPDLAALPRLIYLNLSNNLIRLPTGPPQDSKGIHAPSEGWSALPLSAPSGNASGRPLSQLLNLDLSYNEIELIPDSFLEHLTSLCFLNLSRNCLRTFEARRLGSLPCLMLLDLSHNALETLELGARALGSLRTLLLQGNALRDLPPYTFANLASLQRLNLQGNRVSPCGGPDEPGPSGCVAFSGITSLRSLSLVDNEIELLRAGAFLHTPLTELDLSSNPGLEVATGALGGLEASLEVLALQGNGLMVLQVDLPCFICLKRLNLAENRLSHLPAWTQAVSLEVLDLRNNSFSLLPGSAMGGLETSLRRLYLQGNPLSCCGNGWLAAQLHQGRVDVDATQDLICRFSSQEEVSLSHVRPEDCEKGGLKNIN
T3 sequence (P01137 30-390): as the sequence (P01137 30-390) above
T3 sequence (Q9NS15 44-1303): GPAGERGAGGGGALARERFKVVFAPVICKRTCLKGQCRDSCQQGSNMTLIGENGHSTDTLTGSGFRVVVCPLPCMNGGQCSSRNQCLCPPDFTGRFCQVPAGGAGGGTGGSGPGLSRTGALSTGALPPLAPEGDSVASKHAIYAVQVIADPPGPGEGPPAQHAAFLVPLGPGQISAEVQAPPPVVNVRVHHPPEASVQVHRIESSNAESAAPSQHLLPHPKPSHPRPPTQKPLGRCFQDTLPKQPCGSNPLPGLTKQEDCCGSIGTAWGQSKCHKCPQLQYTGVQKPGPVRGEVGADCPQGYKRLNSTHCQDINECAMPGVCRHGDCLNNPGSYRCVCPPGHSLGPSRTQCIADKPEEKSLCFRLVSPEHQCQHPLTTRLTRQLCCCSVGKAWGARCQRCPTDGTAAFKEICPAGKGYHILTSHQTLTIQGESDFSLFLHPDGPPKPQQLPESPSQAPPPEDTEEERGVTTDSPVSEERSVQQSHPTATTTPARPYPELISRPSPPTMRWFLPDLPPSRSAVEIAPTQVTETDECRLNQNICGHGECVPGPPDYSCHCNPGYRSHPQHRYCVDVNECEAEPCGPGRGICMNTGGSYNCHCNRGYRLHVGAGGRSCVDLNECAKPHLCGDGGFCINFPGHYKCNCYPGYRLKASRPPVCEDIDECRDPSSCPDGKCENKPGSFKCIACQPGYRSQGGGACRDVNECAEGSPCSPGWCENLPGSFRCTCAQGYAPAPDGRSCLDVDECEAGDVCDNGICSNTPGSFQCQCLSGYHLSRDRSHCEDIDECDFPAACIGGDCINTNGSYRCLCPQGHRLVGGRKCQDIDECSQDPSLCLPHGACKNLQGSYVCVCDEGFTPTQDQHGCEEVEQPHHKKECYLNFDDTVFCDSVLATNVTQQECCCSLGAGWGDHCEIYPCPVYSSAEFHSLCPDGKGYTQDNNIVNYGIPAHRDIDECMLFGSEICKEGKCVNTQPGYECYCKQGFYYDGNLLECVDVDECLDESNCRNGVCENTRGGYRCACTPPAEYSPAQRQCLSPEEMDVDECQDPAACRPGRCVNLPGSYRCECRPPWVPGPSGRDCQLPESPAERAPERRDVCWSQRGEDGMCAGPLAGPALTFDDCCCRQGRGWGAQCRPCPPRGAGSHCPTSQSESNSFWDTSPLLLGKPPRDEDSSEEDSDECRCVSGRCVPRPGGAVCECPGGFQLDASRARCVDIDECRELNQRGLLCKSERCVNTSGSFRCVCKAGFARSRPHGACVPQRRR

B1: SR-AB43: cycle 3 light chain-optimized antibody, lineage SR-AB23; CDRs SEQ ID NO: 172-177 (antibody, V domains shown)
VH: QVQLVESGGGVVQPGRSLRLSCAASGFTFRSYVMHWVRQAPGKGLEWVAVISHEGSLKYYADSVKGRFTISRDNSKNTLYLQMNSLRAEDTAVYYCARPRIAARRGGFGYWGQGTLVTVSS
VL: NFMLTQPHSVSESPGKTVTISCTRSSGNIDYNYVQWYQQRPGSSPTTVIYEDNVRPSGVPDRFSGSIDSSSNSASLTISGLKTEDEADYYCQSYDSDNQRVVFGGGTKLTVL
For B1, in the test with huGARP proTGFβ1 [1], the “ForteBio IgG KD Hu GARP-proTGFβ1 (M) Avid” value is reported as “N.B” and the “ForteBio IgG KD Hu GARP-proTGFβ1 in solution (M) Avid” value was “N.B”. For the same molecule, in the test with huLTBP1 proTGFβ1 [2], the “Hu LTBP1-proTGFβ1 Kon” value came out at 244000 M⁻¹ s⁻¹ and the “Hu LTBP1-proTGFβ1 Koff” value was found to be 0.000159 s⁻¹. For the same molecule, in the test with huLTBP3 proTGFβ1 [3], the “Hu LTBP3-proTGFβ1 Kon” value came out at 337000 M⁻¹ s⁻¹ and the “Hu LTBP3-proTGFβ1 Koff” value came to 6e-05 s⁻¹. In the test with huLTBP1 proTGFβ1 [4] (SPR, Fab fragments, antigen not given), the “KD of Fab fragments” value is listed as “sub-nanomolar”.

B2: SR-AB40: cycle 3 light chain-optimized antibody, lineage SR-AB23; CDRs SEQ ID NO: 154-159 (antibody, V domains shown)
VH: QVQLVESGGGVVQPGRSLRLSCAASGFTFRSYVMHWVRQAPGKGLEWVAVISHEGSLKYYADSVKGRFTISRDNSKNTLYLQMNSLRAEDTAVYYCARPRIAARRGGFGYWGQGTLVTVSS
VL: NFMLTQPHSVSESPGKTVTISCTRSSGNIDNNYVQWYQQRPGSSPTTVIYEDNQRPSGVPDRFSGSIDSSSNSASLTISGLKTEDEADYYCQSYDYSNQGVVFGGGTKLTVL
Take B2: in the test with huGARP proTGFβ1 [1], the “ForteBio IgG KD Hu GARP-proTGFβ1 (M) Avid” value is “N.B” and the “ForteBio IgG KD Hu GARP-proTGFβ1 in solution (M) Avid” value is “N.B”. Also, in the test with huLTBP1 proTGFβ1 [2], the “Hu LTBP1-proTGFβ1 Kon” value amounted to 150000 M⁻¹ s⁻¹ and the “Hu LTBP1-proTGFβ1 Koff” value is 6e-05 s⁻¹. Moreover, in the test with huLTBP3 proTGFβ1 [3], the “Hu LTBP3-proTGFβ1 Kon” value turned out to be 182000 M⁻¹ s⁻¹ and the “Hu LTBP3-proTGFβ1 Koff” value came to 6.07e-05 s⁻¹.

B3: SR-AB62: cycle 3 light chain-optimized antibody, lineage SR-AB24; CDRs SEQ ID NO: 286-291 (antibody, V domains shown)
VH: QLQLQESGPGLAKPSETLSLTCTVSGGSIRSSSYYWGWIRQPPGKGLEWIGSISYSATTYYNPSLKSRVTISVDTSKNQFSLKLSSVTAADTAVYYCASDPSYDSAAGMDVWGQGTTVTVSS
VL: DIQMTQSPSSLSASVGDRVTITCRASKVISSYLNWYQQKPGKAPKLLIYYASSLQSGVPSRFSGSGSGTDFTLTISSLQPEDFATYYCQQSNDWPFTFGGGTKVEIK
Take B3: in the test with huGARP proTGFβ1 [1], the “ForteBio IgG KD Hu GARP-proTGFβ1 (M) Avid” value is listed as “N.B” and the “ForteBio IgG KD Hu GARP-proTGFβ1 in solution (M) Avid” value is “N.B”. For the same molecule, in the test with huLTBP1 proTGFβ1 [2], the “Hu LTBP1-proTGFβ1 Kon” value stood at 140000 M⁻¹ s⁻¹ and the “Hu LTBP1-proTGFβ1 Koff” value was found to be 6.82e-05 s⁻¹. In addition, in the test with huLTBP3 proTGFβ1 [3], the “Hu LTBP3-proTGFβ1 Kon” value turned out to be 203000 M⁻¹ s⁻¹ and the “Hu LTBP3-proTGFβ1 Koff” value came to 7.47e-05 s⁻¹.

B4: SR-AB63-HuFab: human Fab fragment of SR-AB63 used in SPR (antibody, V domains shown)
VH: QLQLQESGPGLVKPSETLSLTCTVSGGSIRSSSYYWGWIRQPPGKGLEWIGSISYSATTYYNPSLKSRVTISVDTSKNQFSLKLSSVTAADTAVYYCAGDPSYDSIAGMQVWGQGTTVTVSS
VL: DIQLTQSPSSLSASVGDRVTITCRASQSISSYLNWYQQKPGKAPKLLIYAASNLQSGVPSRFSGSGSGTDFTLTISSLQPEDFATYYCQQSFDWPLTFGGGTKVEIK
Take B4: the ka is 2660 M⁻¹ s⁻¹ with huGARP proTGFβ1 [5], 371000 M⁻¹ s⁻¹ in the test with huLTBP1 proTGFβ1 [4] (setting [7]), 394000 M⁻¹ s⁻¹ with huLTBP3 proTGFβ1 [6] and 5000 M⁻¹ s⁻¹ with huLRRC33 proTGFβ1. Besides, the kd in the test with huGARP proTGFβ1 [5] stood at 0.00093 s⁻¹; in the test with huLTBP1 proTGFβ1 [4] (setting [7]), 3.82e-08 s⁻¹; with huLTBP3 proTGFβ1 [6], 4.99e-05 s⁻¹; in the test with huLRRC33 proTGFβ1 it was 0.00108 s⁻¹.
